In patent US10385103B2, “Cell-permeable (ICP)-SOCS3 recombinant protein and uses thereof” (CELLIVERY THERAPEUTICS, INC., priority 2014, dated 2019):
Like-named read-outs stand apart in the source and are kept apart here.

Legend:
[1] = Solubility/yield of SOCS3 recombinant proteins expressed and purified from E. coli; assay type: physicochemical
Protocol: Thereafter, the recombinant protein gene-introduced E. coli was inoculated in 7 ml of LB medium, and then incubated at 37° C. overnight. The E. coli was inoculated in 700 ml of LB medium and incubated at 37° C. until OD600 reached 0.6. To this culture medium, 0.6 mM of isopropyl-β-D-thiogalactoside (IPTG, Gen Depot, USA) was added as a protein expression inducer, followed by further incubation at 37° C. for 3 hours. This culture medium was centrifuged at 4° C. and 8,000 rpm for 10 minutes and a supernatant was discarded to recover a cell pellet. The cell pellet thus recovered was suspended in a lysis buffer (100 mM NaH2PO4, 10 mM Tris-HCl, 8 M Urea, pH 8.0), and cells were disrupted by sonication (on/off time: 30 sec/30 sec, on time 2 hours, amplify 40%), and centrifuged at 15,000 rpm for 30 min to obtain a soluble fraction and an insoluble fraction.
After purification, the proteins were put in a SnakeSkin Dialysis Tubing bag (pore size: 10000 mw, Thermo scientific, USA) and then they were dialyzed by physiological buffer (DMEM). The strain lysate where protein expression was not induced, the strain lysate where protein expression was induced by addition of IPTG, and purified proteins were loaded on SDS-PAGE to analyze protein expression characteristics and expression levels (FIGS. 19 and 20).
Solubility of aMTD/SD-fused SOCS3 proteins was scored on a 5 point scale compared with that of SOCS3 proteins lacking the solubilization domain.

AGS cells = assay: Antiproliferative activity, CellTiter-Glo Cell Viability Assay; assay type: cell-based; conditions: 10 μM, 96 hrs, 2% serum
Protocol: Antiproliferative activity were evaluated with the CellTiter-Glo Cell Viability Assay. AGS cells (3×10^3/well) were seeded in 96 well plates. The next day, cells were treated with DMEM (vehicle) or 10 μM HM165S3B, HM15S3B′(V28L) for 96 hrs in the presence of serum (2%). Proteins were replaced daily. Cell growth and survival were evaluated with the CellTiter-Glo Cell Viability Assay (Promega, Madison, Wis.). Measurements using a Luminometer (Turner Designs, Sunnyvale, Calif.) were conducted following the manufacturer's protocol.

RAW 264.7 cells = assay: Mechanism of aMTD-mediated uptake (EDTA, proteinase K, taxol, antimycin, temperature; flow cytometry); assay type: cell-based; conditions: for protein uptake after proteinase K pretreatment: 5 ug/ml proteinase K 10 minutes; for protein uptake after taxol pretreatment: 20 uM taxol 30 minutes
Protocol: The mechanism of basic CPP (TAT and PolyR)-mediated intracellular delivery was also investigated in the same manner as in Example 7-1 and Example 14-2.
(1) RAW 264.7 cells were pretreated with 100 mM EDTA for 3 hours, and then treated with 10 uM of iCP-SOCS3 (HM165S3B) protein for 1 hour, followed by flow cytometry in the same manner as in Example 7-1 (FIG. 51A).
(2) RAW 264.7 cells were pretreated with 5 ug/ml of proteinase K for 10 minutes, and then treated with 10 uM of iCP-SOCS3 (HM165S3B) protein for 1 hour, followed by flow cytometry (FIG. 51B).
(3) RAW 264.7 cells were pretreated with 20 uM taxol for 30 minutes, and then treated with 10 uM of iCP-SOCS3 (HM165S3B) protein for 1 hour, followed by flow cytometry (FIG. 52A).
(4) RAW 264.7 cells were pretreated with 1 mM ATP and 10 uM antimycin singly or in combination for 2 hours, and then treated with 10 uM of iCP-SOCS3 (HM165S3B) protein for 1 hour, followed by flow cytometry (FIG. 52B).
(5) RAW 264.7 cells were left at 4° C. and 37° C. for 1 hour, respectively, and then treated with 10 uM of iCP-SOCS3 (HM165S3B) protein for 1 hour, followed by flow cytometry (FIG. 53).

STAT3 = assay: Cell-to-cell function: phospho-STAT3 in PANC-1 cells seeded with protein-treated RAW 264.7 cells (western blot); assay type: cell-based; conditions: RAW 264.7 treated with 5 μM protein 2 hour, seeded on PANC-1, 20 ng/ml IFN-γ 15 minutes
Protocol: For this, RAW 264.7 cells were treated with 5 μM of FITC-labeled HM165S3B, HTS3B for 2 hour and washed with PBS two times. Thereafter, they were seeded on PANC-1 cell, incubated for 2 hours and treated with 20 ng/ml of IFN-γ for 15 minutes, followed by Western blotting in the same manner as in Example 8-1. And Cell-to-cell protein transfer was assessed by flow cytometry.

[2] = Bioavailability of FITC-labeled SOCS3 recombinant proteins after IV injection (PBMCs, splenocytes, hepatocytes, tissue sections); assay type: in vivo, ICR mice
Protocol: To investigate BA of the iCP-SOCS3 (HM165S3B) recombinant proteins, ICR mice (Doo-Yeol Biotech Co. Ltd., Seoul, Korea) were intravenous (IV) injected with 600 μg/head of 10 μM FITC (Fluorescein isothiocyanate, SIGMA, USA)-labeled SOCS3 recombinant proteins (HS3B, HM165S3B) and after 15 min, 30 min, 1H, 2H, 4H, 8H, 12H, 16H, 24H, 36H, 48H, mice of each group were sacrificed. From the mice, peripheral blood mononuclear cells (PBMCs), splenocytes, and hepatocytes were separated.
Further, the spleen was removed and washed with PBS, and then placed on a dry ice and embedded in an O.C.T. compound (Sakura). After cryosectioning at 20 μm, tissue distributions of fluorescence-labeled-SOCS3 proteins in different organs was analyzed by fluorescence microscopy (Carl Zeiss, Gottingen, Germany).
After anesthesia with ether, ophthalmectomy was performed and the blood was collected therefrom using a 1 ml syringe. The collected blood was immediately put in an EDTA tube and mixed well. The blood was centrifuged at 4,000 rpm and 4° C. for 5 minutes, and plasma was discarded and only buffy coat was collected in a new microtube. 0.5 ml of RBC lysis buffer (Sigma) was added thereto, followed by vortexing. The microtube was left at room temperature for 5 minutes, and then centrifuged at 4,000 rpm and 4° C. for 5 minutes. 0.3 ml of PBS was added to a pellet, followed by pipetting and flow cytometry (FlowJo cytometric analysis software, Guava, Millipore, Darmstadt, Germany).
Mice were laparotomized and the spleen or liver were removed. The spleen or liver thus removed was separated into single cells using a Cell Strainer (SPL, Korea). These cells were collected in a microtube, followed by centrifugation at 4,000 rpm and 4° C. for 5 minutes. 0.5 ml of RBC lysis buffer was added thereto, followed by vortexing. The microtube was left at room temperature for 5 minutes, and then centrifuged at 4,000 rpm and 4° C. for 5 minutes. 0.5 ml of PBS was added to a pellet, followed by pipetting and flow cytometry (FlowJo cytometric analysis software, Guava, Millipore, Darmstadt, Germany).

[3] = then 10 uM protein 1 hour, listed as aMTD165/SD-fused SOCS3 recombinant proteins
[4] = IV 600 μg/head FITC-labeled protein

B1: HM165S3B: His-tagged recombinant protein of aMTD165, human SOCS3 and solubilization domain B; prototype improved cell-permeable SOCS3 (protein)
chain: MGSSHHHHHHSSGLVPRGSHMALAVPVALAIVPVTHSKFPAAGMETSRPLDTSLRLKTFSSKSEYQLVVNAVRKLQESGFYWSAVTGGEANLLLSAEPAGTFLIRDSSDQRHFFTLSVKTQSGTKNLRIQCEGGSFSLQSDPRSTQPVPRFDCVLKLVHHYMETPPPGAPSFPSPPTEPSSEVPEQPSAQPLPGSPPRRAYYIYSGGEKIPLVLSRPLSSNVATLQHLCRKTVNGHLDSYEKVTQLPGPIREFLDQYDAPLGSMAEQSDKDVKYYTLEEIQKHKDSKSTWVILHHKVYDLTKFLEEHPGGEEVLGEQAGGDATENFEDVGHSTDARELSKTYIIGELHPDDRSKIAKPSETL
modifications: Amino acid sequence of HM165S3B
- solubility/yield [1]: high solubility/yield
- solubility (tendency to precipitate) ([1]; expressed and purified in E. coli): had little tendency to precipitate
- solubility/yield ([1]; listed as SDB-fused iCP-SOCS3 recombinant protein): showed the highest solubility/yield
- solubility/yield ([1]; listed as aMTD165/SD-fused SOCS3 recombinant proteins): much higher than that of TAT/SD-fused SOCS3 or PolyR/SD-fused SOCS3 recombinant proteins
- anti-proliferative activity (AGS cells): high anti-proliferative effects on gastric carcinoma cells
- protein uptake after proteinase K pretreatment (RAW 264.7 cells; then 10 uM protein 1 hour): essentially unaffected
- protein uptake after proteinase K pretreatment (RAW 264.7 cells; [3]): independent to cell surface receptor
- protein uptake after taxol pretreatment (RAW 264.7 cells; then 10 uM protein 1 hour): essentially unaffected
- protein uptake after taxol pretreatment (RAW 264.7 cells; [3]): not due to endocytosis
- protein uptake after antimycin (ATP depletion) (RAW 264.7 cells; 1 mM ATP and 10 uM antimycin 2 hours, then 10 uM protein 1 hour): essentially unaffected
- protein uptake after EDTA pretreatment (RAW 264.7 cells; 100 mM EDTA 3 hours, then 10 uM protein 1 hour): blocked
- protein uptake at low temperature (RAW 264.7 cells; 4° C. vs 37° C., 10 uM protein 1 hour): blocked
- phospho-STAT3 (cell-to-cell function) (STAT3): reduced
- time maintained in tissues, depending on the tissues ([2]; IV): 8 to 16 h
- time of delivery from blood to various tissues ([2]; IV): ≤ 2 h
- distribution in pancreas tissue maintained up to [2, 4]: up to 8 hours
- permeability in hepatocytes maintained up to [2, 4]: up to 16 hours
- permeability in splenocytes maintained up to [2, 4]: up to 16 hours
- time of maximum permeability in PBMCs [2, 4]: 30 min
- time of maximum permeability in hepatocytes [2, 4]: 15 min
- time of maximum permeability in splenocytes [2, 4]: 2 h
- time of very high distribution in pancreas tissue [2, 4]: 2 h
